We go through one substance from US20180092975A1.

For test [1], the target named is cyno PD-1 expressed on cells (cynomolgus monkey) (UniProt B0LAJ3). Kind of test: flow cytometry on CHO cells expressing cyno PD-1, detection with anti-human IgG Fc, PE GeoMFI. Set-up: unit not given here. For orientation: Flow cytometry measures light scatter and fluorescence of single cells or particles in a stream.
Test [2] concerns the target human PD-1 expressed on cells (human) (UniProt Q15116). Kind of test: flow cytometry on CHO cells expressing human PD-1, detection with anti-human IgG Fc, PE GeoMFI. Details: unit not given here.
UniProt Q15116, sequence (Q15116 25-198 limits assumed): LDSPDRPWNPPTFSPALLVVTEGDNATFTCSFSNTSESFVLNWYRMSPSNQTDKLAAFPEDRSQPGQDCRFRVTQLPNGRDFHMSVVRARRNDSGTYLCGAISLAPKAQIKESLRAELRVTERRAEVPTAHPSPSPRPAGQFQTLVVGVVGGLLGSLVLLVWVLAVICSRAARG

UniProt B0LAJ3, sequence (B0LAJ3 entry or part of it limits assumed): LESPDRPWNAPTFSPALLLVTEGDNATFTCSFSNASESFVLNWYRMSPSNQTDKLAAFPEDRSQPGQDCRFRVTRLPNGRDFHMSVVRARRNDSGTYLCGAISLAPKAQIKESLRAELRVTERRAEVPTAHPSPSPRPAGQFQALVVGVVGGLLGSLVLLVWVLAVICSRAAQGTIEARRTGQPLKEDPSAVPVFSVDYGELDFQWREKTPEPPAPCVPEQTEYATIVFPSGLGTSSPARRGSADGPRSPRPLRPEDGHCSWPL

For the substance huIgG1 Fc, the LogEC50 in test [1] is -6.89; in test [2] it was -7.75.
